Results reported in the supplement of paper PMC7125110.
± gives the standard error. Fewer inactive variants are shown than the library holds.

B1: glmS ribozyme (parent)
chain: AUAAAAGCGCCAGAACUACAGAAAUGUAGUUGACGAGGAGGAGGUUUAUCGAAUUUUCGGCGGAUGCCUCCAAA

Legend:
Conditions in all cases: with glucosamine-6-phosphate
glucosamine-6-phosphate [1] = variants of: B1; assay: self-cleavage kobs at 640 uM GlcN6P; higher = faster cleavage; RNA array
Procedure, shortened: (§1)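 kobs was derived by fitting per-tile medians to one- or two-exponential decays after normalising signals to baseline and to non-cleaving reference variants. Those signals came from barcoded ribozyme variants transcribed in situ by E. coli RNA polymerase on sequenced MiSeq chips, followed through a hybridised Cy3 probe at 37 °C and imaged over ~14 h. Glucosamine-6-phosphate (40 μM to 10 mM) in HEPES/KCl/Mg(OAc)2 buffer was flowed in. Weighted Michaelis–Menten fits across concentrations then gave kcat and KM.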

glucosamine-6-phosphate [2] = variants of: B1; assay: self-cleavage kobs at 2500 uM GlcN6P; higher = faster cleavage; RNA array
Procedure, shortened: as §1

glucosamine-6-phosphate [3] = variants of: B1; assay: self-cleavage kobs at 10000 uM GlcN6P; higher = faster cleavage; RNA array
Procedure, shortened: as §1

Row | Variant | self-cleavage kobs at 640 uM GlcN6P (glucosamine-6-phosphate [1]) [s⁻¹] | self-cleavage kobs at 2500 uM GlcN6P (glucosamine-6-phosphate [2]) [s⁻¹] | self-cleavage kobs at 10000 uM GlcN6P (glucosamine-6-phosphate [3]) [s⁻¹]
1 | A12C A14C U31G | 0.00206 ± 0.00061 | 0.00423 ± 0.0015 | –
2 | A14U G40C G44C U45C C70U | < 1e-05 | < 1e-05 | –
3 | G13C G29U C71G | < 1e-05 | – | –
4 | A12C U30C U57G U65C | < 1e-05 | – | –
5 | A14U U30G U54C | 0.000624 ± 0.00011 | 0.00185 ± 0.00046 | –
6 | A12G G43C A53G | < 1e-05 | < 1e-05 | –
7 | A12G U31G U55A C67U | 5.14e-05 ± 1.3e-05 | 0.00011 ± 1.9e-05 | 0.000176 ± 3.2e-05
8 | C11G U30G A42U A53U G63U U65A C68G | < 1e-05 | – | –
9 | A12G A36C U45C G60U | < 1e-05 | – | –
10 | G13A C16G G59C C68A | 0.000133 ± 3.8e-05 | – | –
11 | G13U U56G C70G | 6.47e-05 ± 3.1e-05 | 4.09e-05 ± 1.9e-05 | –
12 | G13C U31G C61U U69C | < 1e-05 | – | –
13 | G13C U46G A53U U54A | < 1e-05 | – | –
14 | G13C A14U A42U A64G | < 1e-05 | – | –
15 | G13A U49A U69A | 0.00011 ± 3.1e-05 | – | –
16 | A12U G62U | < 1e-05 | – | < 1e-05
17 | C11G A14G G41A G43C | < 1e-05 | < 1e-05 | –
18 | A14G G29A A39G A42G G43U G62C | < 1e-05 | < 1e-05 | –
19 | A12C U46C C67G | 6.73e-05 ± 1.7e-05 | 0.000179 ± 5.3e-05 | –
20 | C11U G35U C68G C70A | 0.000984 ± 0.00032 | – | –
21 | A14G G40U C61G | < 1e-05 | < 1e-05 | –
22 | C11U U30A C34U A36G U69A | 0.000685 ± 0.00016 | – | –
23 | A14U C34U G37C G51A U55C | < 1e-05 | – | –

Row | Variant | self-cleavage kobs at 640 uM GlcN6P (glucosamine-6-phosphate [1]) [s⁻¹] | self-cleavage kobs at 2500 uM GlcN6P (glucosamine-6-phosphate [2]) [s⁻¹] | self-cleavage kobs at 10000 uM GlcN6P (glucosamine-6-phosphate [3]) [s⁻¹]
24 | C11G C50U U57A G60A C67U | 0.000609 ± 0.00017 | – | –
25 | G13C C34G G35C A52C | < 1e-05 | < 1e-05 | –
26 | C11G G29C G59C | < 1e-05 | – | –
27 | A15C G29C G35A C50A | < 1e-05 | < 1e-05 | –
28 | A12U U45A U65G | 0.000665 ± 0.00016 | – | –
29 | A14U A15G G60U G66A | < 1e-05 | – | –
30 | C11G C16G G38A G63A | < 1e-05 | – | –
31 | A12U G32A G41C G62U C68U | < 1e-05 | < 1e-05 | –
32 | A14C C34U U54C | < 1e-05 | < 1e-05 | < 1e-05
33 | A14U A36C U47C | < 1e-05 | – | –
34 | A14G C16A G62C | < 1e-05 | – | –
35 | A12G G44U C70G | < 1e-05 | < 1e-05 | –
36 | A14G C67U C71U | 0.000875 ± 0.00018 | 0.00249 ± 0.00091 | –
37 | C11U A14G A52G | 8.93e-05 ± 1.6e-05 | 0.00029 ± 8e-05 | –
38 | A12U U31C C67U | 0.000286 ± 9.1e-05 | – | –
39 | A14G G35A U45G G66U | < 1e-05 | < 1e-05 | –
40 | A14U C16G G35U A36U G38U U56C U57G G60U | < 1e-05 | < 1e-05 | –
41 | C11G G60U A64U | < 1e-05 | < 1e-05 | –
42 | C11U A12C C70G | 0.000165 ± 6.8e-05 | – | –
43 | A12C A14G G60U | < 1e-05 | – | –
44 | A12U G40C C61A | < 1e-05 | – | –
45 | A15C A36C G41U | < 1e-05 | – | –
46 | A12C A20C | 0.00491 ± 0.0012 | 0.0118 ± 0.0035 | –

Row | Variant | self-cleavage kobs at 640 uM GlcN6P (glucosamine-6-phosphate [1]) [s⁻¹] | self-cleavage kobs at 2500 uM GlcN6P (glucosamine-6-phosphate [2]) [s⁻¹] | self-cleavage kobs at 10000 uM GlcN6P (glucosamine-6-phosphate [3]) [s⁻¹]
47 | C11U G41U U45C | < 1e-05 | – | –
48 | C11A U30C G38U | < 1e-05 | < 1e-05 | –
49 | G13U G60U C68A C71A | < 1e-05 | < 1e-05 | –
50 | A12G G29C A39G A52C C67A | < 1e-05 | – | –
51 | A12U A39C A42U G60A | < 1e-05 | – | < 1e-05
52 | A14C A42U A64U | < 1e-05 | < 1e-05 | –
53 | A12G C50G C71G | 0.000415 ± 0.00014 | 0.000636 ± 0.00027 | –
54 | A14U C16A G29A | 8.7e-05 ± 2.4e-05 | – | –
55 | A14C A33C G44C G59U | < 1e-05 | < 1e-05 | –
56 | G13C G44C G60A | < 1e-05 | – | –
57 | G13C A39C A42U | < 1e-05 | – | –
58 | A12U G29U G37A U55A | 0.000291 ± 8.3e-05 | 0.000446 ± 9.5e-05 | –
59 | A14G U54C C61G G62C | < 1e-05 | – | –
60 | A12G A42G C61U G63U | < 1e-05 | – | –
61 | A12U G32U G41A U56A A64U U65A | < 1e-05 | < 1e-05 | –
62 | G13C G37U A39U | < 1e-05 | < 1e-05 | –
63 | C11U G35C U46A U69G | < 1e-05 | < 1e-05 | –
64 | C11U G44U C70G | < 1e-05 | – | –
65 | A12C U30A U56A | 0.000365 ± 0.00012 | 0.00105 ± 0.00026 | 0.00357 ± 0.00086
66 | C11U A15G G60U | < 1e-05 | – | –
67 | A15C U30A U31G C34G C67G | 5.05e-05 ± 2.3e-05 | – | –
68 | C11U A33C U55G C58U | < 1e-05 | – | –
69 | A12U G59C U69A | 0.00122 ± 0.00048 | – | –
